Data on two molecules can be found in paper PMC2881700 (Journal of immunology (Baltimore, Md. : 1950), 2010).

Common to all, as to assay: radioligand binding
The target of assay [1] is MD-2Flag.His6/FlagTLR4ecd (wild type) complex (human, UniProt Q9Y6Y9 19-160; O00206 24-631).
Assay [2] addresses MD-2Flag.His6/FlagTLR4ecd D299G.T399I complex (human, UniProt Q9Y6Y9 19-160; O00206 24-631, D299G | T399I).
Assay [3] deals with FlagTLR4ecd, wild type (extracellular domain of human TLR4, residues 24-631) (human, UniProt O00206 24-631).
For assay [4], the target named is full-length D299G.T399I TLR4 expressed on HEK293T cells without MD-2 (human, UniProt O00206 24-839, D299G | T399I).
Chain of full-length D299G.T399I TLR4 expressed on HEK293T cells without MD-2 (O00206 24-839 D299G/T399I): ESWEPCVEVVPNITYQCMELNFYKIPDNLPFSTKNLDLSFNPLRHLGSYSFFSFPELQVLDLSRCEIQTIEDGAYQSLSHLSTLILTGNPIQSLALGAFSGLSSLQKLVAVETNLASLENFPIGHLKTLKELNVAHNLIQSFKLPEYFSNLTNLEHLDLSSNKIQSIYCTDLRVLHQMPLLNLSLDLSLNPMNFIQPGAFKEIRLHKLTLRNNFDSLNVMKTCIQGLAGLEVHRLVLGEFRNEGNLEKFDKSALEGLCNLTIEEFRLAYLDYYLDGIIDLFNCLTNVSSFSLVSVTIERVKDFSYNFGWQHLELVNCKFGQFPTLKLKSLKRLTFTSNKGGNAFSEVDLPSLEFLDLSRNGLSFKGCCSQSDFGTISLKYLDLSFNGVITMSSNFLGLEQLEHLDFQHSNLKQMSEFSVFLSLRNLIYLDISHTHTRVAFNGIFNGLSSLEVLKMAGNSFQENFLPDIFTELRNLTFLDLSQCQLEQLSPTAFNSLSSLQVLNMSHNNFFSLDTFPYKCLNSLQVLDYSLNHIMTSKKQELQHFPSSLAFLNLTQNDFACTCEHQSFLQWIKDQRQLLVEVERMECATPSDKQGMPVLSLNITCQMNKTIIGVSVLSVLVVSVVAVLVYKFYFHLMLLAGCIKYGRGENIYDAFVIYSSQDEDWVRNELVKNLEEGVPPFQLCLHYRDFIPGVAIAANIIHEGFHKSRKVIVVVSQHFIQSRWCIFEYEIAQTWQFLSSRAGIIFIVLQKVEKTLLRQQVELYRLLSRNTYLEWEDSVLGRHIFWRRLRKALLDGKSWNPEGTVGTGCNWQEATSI

Chain of FlagTLR4ecd, wild type (extracellular domain of human TLR4, residues 24-631) (O00206 24-631): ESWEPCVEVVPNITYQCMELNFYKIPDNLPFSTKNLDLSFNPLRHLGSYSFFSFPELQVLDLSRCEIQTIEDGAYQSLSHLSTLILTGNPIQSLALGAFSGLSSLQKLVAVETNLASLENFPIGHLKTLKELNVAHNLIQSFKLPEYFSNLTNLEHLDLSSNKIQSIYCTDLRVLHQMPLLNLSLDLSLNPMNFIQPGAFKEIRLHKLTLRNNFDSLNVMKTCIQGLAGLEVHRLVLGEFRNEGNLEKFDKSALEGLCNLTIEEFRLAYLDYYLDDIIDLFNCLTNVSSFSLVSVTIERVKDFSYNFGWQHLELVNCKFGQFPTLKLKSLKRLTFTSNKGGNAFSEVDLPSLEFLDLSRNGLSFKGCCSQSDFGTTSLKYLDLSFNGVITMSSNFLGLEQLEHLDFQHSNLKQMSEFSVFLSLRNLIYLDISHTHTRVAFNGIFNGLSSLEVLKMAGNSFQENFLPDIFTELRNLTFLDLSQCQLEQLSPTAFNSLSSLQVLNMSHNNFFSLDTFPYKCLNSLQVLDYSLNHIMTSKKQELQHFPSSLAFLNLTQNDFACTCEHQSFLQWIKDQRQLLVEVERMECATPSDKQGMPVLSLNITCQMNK
Chain of MD-2Flag.His6/FlagTLR4ecd (wild type) complex (O00206 24-631, one chain of several): as the sequence (O00206 24-631) above
Chain of MD-2Flag.His6/FlagTLR4ecd D299G.T399I complex (O00206 24-631 D299G/T399I, one chain of several): as the sequence (O00206 24-631) above, with D276G, T376I counted along it

B1: monomeric [3H]LOS·sCD14 complex (endotoxin·CD14) (natural protein, UniProt P08571 20-345, looked up)
chain: TTPEPCELDDEDFRCVCNFSEPQPDWSEAFQCVSAVEVEIHAGGLNLEPFLKRVDADADPRQYADTVKALRVRRLTVGAAQVPAQLLVGALRVLAYSRLKELTLEDLKITGTMPPLPLEATGLALSSLRLRNVSWATGRSWLAELQQWLKPGLKVLSIAQAHSPAFSCEQVRAFPALTSLDLSDNPGLGERGLMAALCPHKFPAIQNLALRNTGMETPTGVCAALAAAGVQPHSLDLSHNSLRATVNPSAPRCMWSSALNSLNLSFAGLEQVPKGLPAKLRVLDLSCNRLNRAPQPDELPEVDNLTLDGNPFLVPGTALPHEGSMN
As for B1, the Kd is 0.196 nM in assay [1] and 0.186 nM in assay [2].

B2: monomeric [3H]LOS·MD-2His6 complex (endotoxin·MD-2) (natural protein)
chain: QKQYWVCNSSDASISYTYCDKMQYPISINVNPCIELKRSKGLLHIFYIPRRDLKQLYFNLYITVNTMNLPKRKEVICRGSDDDYSFCRALKGETVNTTISFSFKGIKFSKGKYKCVVEAISGSPEEMLFCLEFVILHQPNSN
On to B2, for which binding in assay [3] was put at a Kd of 0.221 ± 0.043 nM. The “fold reduction of cell binding against wt TLR4” value in assay [4] is at least 10 fold.
